{"source": "paper PMC4081073", "origin": "cited, not measured here", "biological_target": "EcoRI restriction endonuclease (Escherichia coli) (UniProt P00642)"}
{"substance": "EcoRI restriction endonuclease (from UniProt P00642)", "values": [{"measurement": "Kd", "value": 0.1, "unit": "µM"}]}
